From paper PMC3706390

Columns and labels:
L30 M108A = L30 M108A (rat, UniProt P62890 1-115, M108A); test: EMSA; comparable to WT; 30 mM Tris-HCl pH 8.0, 75 mM KCl, 5 mM MgCl2, 1 mM DTT, 0.04 ug/uL BSA, 10% glycerol, 50 ng/uL yeast tRNA, 30 C 15 min; EMSA gels 0.5X TBE at 4 C; RNase digesti
L30 V91A = L30 V91A (rat, UniProt P62890 1-115, V91A); test: as above
L30 L29A = L30 L29A (rat, UniProt P62890 1-115, L29A); test: as above
L30 E110A = L30 E110A (rat, UniProt P62890 1-115, E110A); test: as above
L30 K36A = L30 K36A (rat, UniProt P62890 1-115, K36A); test: EMSA; reduced by 60%; 30 mM Tris-HCl pH 8.0, 75 mM KCl, 5 mM MgCl2, 1 mM DTT, 0.04 ug/uL BSA, 10% glycerol, 50 ng/uL yeast tRNA, 30 C 15 min; EMSA gels 0.5X TBE at 4 C; RNase digesti
L30 K87A = L30 K87A (rat, UniProt P62890 1-115, K87A); test: EMSA; little effect vs WT; 30 mM Tris-HCl pH 8.0, 75 mM KCl, 5 mM MgCl2, 1 mM DTT, 0.04 ug/uL BSA, 10% glycerol, 50 ng/uL yeast tRNA, 30 C 15 min; EMSA gels 0.5X TBE at 4 C; RNase digesti
L30 Y89A = L30 Y89A (rat, UniProt P62890 1-115, Y89A); test: EMSA; L30 at 50% WT binding; 30 mM Tris-HCl pH 8.0, 75 mM KCl, 5 mM MgCl2, 1 mM DTT, 0.04 ug/uL BSA, 10% glycerol, 50 ng/uL yeast tRNA, 30 C 15 min; EMSA gels 0.5X TBE at 4 C; RNase digesti
L30 L35A = L30 L35A (rat, UniProt P62890 1-115, L35A); test: EMSA; reduced by 14%, significant; 30 mM Tris-HCl pH 8.0, 75 mM KCl, 5 mM MgCl2, 1 mM DTT, 0.04 ug/uL BSA, 10% glycerol, 50 ng/uL yeast tRNA, 30 C 15 min; EMSA gels 0.5X TBE at 4 C; RNase digesti

## GGGACCGGAGUGUCGCAAGACGCAGAGAUGGUCC (structured_RNA) [L30 RNA (stem-loop of L30 pre-mRNA)]
L30 M108A
  binding result: binds
L30 V91A
  binding result: binds
L30 L29A
  binding result: binds
L30 E110A
  binding result: binds
L30 K36A
  binding signal: 40 % of WT binding
L30 K87A
  binding result: binds
L30 Y89A
  binding signal: 37 % of WT binding
L30 L35A
  binding signal: 86 % of WT binding
